Assay results from patent US12552866B2, “Internalizing binding molecules targeting receptors involved in cell proliferation or in cell differentiation” (LinXis B.V., priority 2019, dated 2026).

How the values were obtained:
[1] = tested on: NIH 3T3 2.2 cells transiently transfected with hIGF2R; assay: Internalization in NIH 3T3 2.2 cells transiently transfected with hIGF2R; assay type: cell-based, human; conditions: 25 nM VHH conjugated to Alexa Fluor 647
Description: (§1) To assess if monovalent 13F11 and biparatopic 13F11-13E8 are internalized in the hIGF2R expressing cells, A549 cells (FIG. 16A) and NIH 3T3 2.2 cells transiently transfected with hIGF2R (FIG. 16B) were incubated with 25 nM VHH conjugated to Alexa Fluor 647 (conjugation method as described in example 9.2). A Mouse anti-IGF2R mAb was included to detect IGF2R expression on the hIGF2R transfected cells NIH 3T3 2.2 (FIG. 16B, right column), the mAb was detected with a goat anti-mouse mAb conjugated to Alexa Fluor 555. Additionally, mock transfected NIH 3T3 2.2 cells were incubated with 13F11 and 13F11-13E8 (FIG. 16C). […]
(§2) (FIG. 10D). […] The rate of internalization (endocytic rate constant, ke) of biparatopic constructs 13F11-13E8 and 13E8-13F11 was determined with a kinetic internalization assay on SCC-VII cells transfected with hIGF2R and rIGF2R. […] Subsequently, cells were washed with cold PBS and the non-internalized VHH construct (bound fraction) was separated from the internalized construct (internalized fraction) using an acid-wash, as described above, after which the fluorescence of both fractions were measured. […] Internalization was also observed in rIGF2R expressing SCC cells as a clear increase in fluorescence over time can be shown in FIG. 17 (ke around 0.7 min-1).

[2] = tested on: mock transfected NIH 3T3 2.2 cells; assay: Internalization in mock transfected NIH 3T3 2.2 cells; assay type: cell-based; conditions: 25 nM VHH conjugated to Alexa Fluor 647
Description: as §1, §2

[3] = tested on: activated HSCs LX-2; assay: Internalization in living LX-2 cells with pHrodo red conjugates; assay type: cell-based, human; conditions: 50 nM pHrodo-red conjugate
Description: Internalization of monovalent 13F11 and biparatopics 13F11-13E8 and 13E8-13F11 in living activated HSCs LX-2 was visualized using the pHrodo pH dependent probe (ThermoFisher Scientific). The pH probe becomes more fluorescent as the pH of the surroundings decreases accordingly. Endosomes and lysosomes have a pH maintained at 6.5 and 4.5, respectively, compared to cytoplasmic pH of 7.0, and thus internalization of a VHH-pHrodo construct can be visualized when it internalizes via the endosomal pathway. LX-2 cells were incubated at 37° C. for 2 hours with 50 nM of pHrodo-red conjugated 13F11, 13F11-13E8 and 13E8-13F11 (conjugation method as described in example 9.2). Images were taken at 5 min. intervals using a wide-field PEXScope microscope (Nikon) with a mCherry filter and 40× oil objective. […] Additionally, both internalized 13F11-13E8 and 13E8-13F11 accumulate into perinuclear compartments (endosomes/lysosomes).

[4] = tested on: A549 cells (IGF2R positive); assay: Internalization in A549 cells (acid wash, confocal); assay type: cell-based, human; conditions: 25 nM VHH conjugated to Alexa Fluor 647
Description: as §1, §2

[5] = tested on: rIGF2R expressing SCC cells; assay: Kinetic internalization assay on rIGF2R expressing SCC cells; assay type: cell-based, rat; conditions: 10 nM IRD800CW conjugate, 37° C., up to 12 minutes
Description: (§3) (FIG. 10D). […] The differences in internalization are possibly related to the differences in IGF2R expression levels on the target cells. […] Summarizing, biparatopic 13F11-13E8 clearly internalizes in cells expressing hIGF2R on the cell surface. The rate of internalization (endocytic rate constant, ke) of biparatopic constructs 13F11-13E8 and 13E8-13F11 was determined with a kinetic internalization assay on SCC-VII cells transfected with hIGF2R and rIGF2R. Briefly, 10 nM of IRD800CW conjugated 13F11-13E8 or 13E8-13F11 (conjugation method as described in example 9.2) was added to hIGF2R expressing SCC cells or rIGF2R expressing SCC cells and incubated at 37° C. for different time points up to 12 minutes. Internalization was then purposely halted by putting the cells on ice. Subsequently, cells were washed with cold PBS and the non-internalized VHH construct (bound fraction) was separated from the internalized construct (internalized fraction) using an acid-wash, as described above, after which the fluorescence of both fractions were measured. Both constructs internalize with similar endocytic rate constants (ke around 1.5 min-1) in the hIGF2R expressing SCC cells (FIG. 17). Internalization was also observed in rIGF2R expressing SCC cells as a clear increase in fluorescence over time can be shown in FIG. 17 (ke around 0.7 min-1).

[6] = target: T1, hIGF2R-ECD (Homo sapiens, UniProt P11717); assay: Binding assay / titration ELISA on recombinant hIGF2R-ECD; conditions: construct conjugated to Alexa Fluor 647, direct read out; KD+SEM, n=2; read-out: calculated affinity (KD)
T1 construct: recombinant human extracellular domain of IGF2R (hIGF2R-ECD)
Description: The 15 unique hIGF2R binders (Example 1.1, FIG. 2) were produced and purified as described in examples 2 and 3. The apparent affinities were determined with binding assays on hIGF2R-ECD. Briefly, three-fold serial VHH dilutions, starting from 1 μM, were added onto hIGF2R-ECD coated plates. After 2 hours of incubation, plates were washed and bound VHH was detected using a VHH-specific IgG antibody, followed by an IRD800CW-conjugated IgG-specific antibody. […] VHH 13F11 was also produced with a C-terminal free cysteine and conjugated using maleimide chemistry to Alexa Fluor 647 (13F11-A647 in FIG. 8A, conjugation method as described in example 9.2). A titration ELISA (direct read out at 647 nm) with this construct was carried out on hIGF2R-ECD to determine whether the affinity was affected after site directed conjugation (FIG. 8B). The KD and Bmax were calculated in Graphpad (version 8.3), using one-site specific binding analysis (FIG. 8C).
Based on their high affinity and binding to non-overlapping receptor epitopes, VHHs 13F11 and 13E8 were selected for the design of biparatopic and bivalent VHH constructs. Two VHHs were fused with a flexible linker, consisting of three Gly-Gly-Gly-Gly-Ser repeats (FIG. 8A). The sequences were codon optimized for expression in E. coli and obtained as synthesized DNA fragments from GeneArt. The DNA fragments encoding VHHs were cloned into a vector pET28-based vector introducing a C-terminal free cysteine for site-directed conjugation and His6 tag for IMAC purification (FIG. 8A). The constructs were produced and purified as described in example 3. The constructs were conjugated to Alexa Fluor 647 (conjugation method as described in example 9.2) and titration ELISAs on recombinant hIGF2R-ECD (as described in example 4.1) were performed to determine the KD and Bmax (calculated in Graphpad (version 8.3), using one-site specific binding analysis) (FIG. 8C).
Next, 13F11-13E8 was genetically re-engineered to include an in vivo half-life extender in the form of an albumin binding domain (ABD) as described by Johansson et al (Structure, specificity, and mode of interaction for bacterial albumin-binding modules, J. Biol. Chem. 2002 (277): 8114-8120) and subsequently produced and purified as described in Example 3. Subsequently, 13F11-13E8-ABD was conjugated to IRDye800CW (F11E8-ABD-IRD800, conjugation method as described in example 9.2) and the binding affinities of the biparatopic VHH as well as the ABD unit was determined. […] The binding affinity (KD) of F11-E8-ABD-IRD800 to rat serum albumin (RSA) was 30 nM and to mouse serum albumin (MSA) and human serum albumin (HSA) the binding affinity was approximately 200 nM.

[7] = In vivo pharmacokinetics in healthy Sprague-Dawley rats (serum ELISA); design: species or system rat; conditions: rat, i.v., approximately 3 mg/kg; LOD approximately 20 nM
Description: The in vivo pharmacokinetic properties of 13F11-13E8-ABD was compared to 13F11-13E8 without the ABD moiety in healthy Sprague-Dawley rats. In brief, rats were dosed intravenously with approximately 3 mg/kg body weight and blood samples were taken at different time points and the concentration of the VHH constructs were determined using an ELISA on immobilized hIGF2R-ECD.

[8] = tested on: hIGF2R expressing SCC cells; assay: Kinetic internalization assay on hIGF2R expressing SCC cells; assay type: cell-based, human; conditions: 10 nM IRD800CW conjugate, 37° C., up to 12 minutes
Description: as §3

B1: 13F11-13E8: biparatopic anti-IGF2R VHH construct, 13F11 and 13E8 fused with (Gly-Gly-Gly-Gly-Ser)3 linker (protein)
chain: EVQLVESGGRLVQPGDSLRLSCAASGRTFSDNAMGWFRQAPGKERRFVAGISWAGGSTYYSDSVKGRFTISRDNAKNTVYLQMNSLKPEDTAVYYCAAGLRAWVQRMPKDYNYWGQGTQVTVSSGGGGSGGGGSGGGGSEVQLVESGGGLVQAGGSLRLSCAASRSISPMGWYRQAPGKQRELVAIMPSSGPPIYADSVQGRFTISRDNAKNTVYLQMNSLKPEDTAVYYCNVGGGYWGQGTQVTVSS
modifications: left off: small tags and cut ends
notes: biparatopic anti-IGF2R VHH construct, 13F11 and 13E8 fused with (Gly-Gly-Gly-Gly-Ser)3 linker
[1]
  internalization in hIGF2R transfected NIH 3T3 2.2 cells: did internalise
[2]
  internalization in mock transfected NIH 3T3 2.2 cells: did not internalize
[3]; 37° C., from 15 min. onwards
  intracellular fluorescence compared to the monovalent construct: more pronounced increase in intracellular fluorescence
[3]; 40-min. time period
  rate of internalization compared to 13E8-13F11: higher rate of internalization
[4]
  internalization in A549 cells: clearly internalized
[5]
  endocytic rate constant (ke): around 0.7 min-1
[6]
  Kd: 2.5 ± 1.87 nM
[7]
  clearance from circulation: could not be detected anymore within two hours after injection
[8]
  endocytic rate constant (ke): around 1.5 min-1
